Laboratory results: paper PMC11373624, “Development and preclinical characterization of a novel radiotheranostic EphA2-targeting bicyclic peptide” (Theranostics, 2024)
Numbered stars: 1 amine (or outer) side, 2 acyl side, 3 side chain; on linkers, the order of the positions; unused ones are H or OH. Bridge positions count the residues as written; N and C are the ends. Square brackets hold non-standard residues; d marks the D form. Peptide text beside a SMILES is read from it. * marks the point of attachment. DOTA = O=C(O)CN1CCN(CC(=O)O)CCN(CC(=O)*)CCN(CC(=O)O)CC1; TATA = O=C(CC[*:1])N1CN(C(=O)CC[*:2])CN(C(=O)CC[*:3])C1; Hyp = O=C(O)[C@@H]1C[C@@H](O)CN1; hArg = N=C(N)NCCCC[C@H](N)C(=O)O; Cba = N[C@@H](CC1CCC1)C(=O)O; βAla = NCCC(=O)O; Sar = CNCC(=O)O

How the values were obtained:
PC-3 tumor xenograft = experiment: in vivo; conditions: male, athymic nude, mouse
Experimental: (§1) SPECT/CT imaging was performed in three 5- to 8-week-old male athymic nude mice (Janvier Labs, UK) which were subcutaneously inoculated on the right upper flank with 5 x 10^6 PC-3 cells (1:1 in PBS:Matrigel). Tumor growth was monitored, and once size was approx. 200 - 500 mm^3, mice were injected intravenously via tail vein with 230 pmol of [^111In]In-BCY18469 (5.3 ± 0.2 MBq). Mice were imaged under isoflurane anesthesia using whole-body static SPECT followed by a CT at each timepoint (30 min SPECT scan time starting at 1h and 24h p.i.). Reconstructed images were generated in units of activity. Namely, the values assigned to the voxels (volume elements) comprising the 3D reconstructed SPECT images were in units of MBq or equivalent. Reconstructed images were processed with VivoQuant (Invicro). Whole body maximum intensity projection (MIP) images were generated using VivoQuant.

in vivo [1] = conditions: male, athymic nude, mouse
Experimental: as §1

MCF-7 tumor xenograft = conditions: mouse, in vivo
Experimental: (§2) PET/MR imaging was performed in 8-week-old female BALC/c nu/nu mice (Charles River, Germany) which were subcutaneously inoculated on the right upper flank with 10^6 cells (1:1 in PBS:Matrigel). Tumor growth was monitored, and once size was approx. 300-500 mm^3, 150 pmol of [^68Ga]Ga-BCY18469 (4 - 9 MBq) was injected intravenously via tail vein with subsequent imaging performed under isoflurane anesthesia. For the PET imaging experiments with blocking, an excess (15 nmol) of non-radiolabeled BCY18469 was injected 5 mins before the injection of 300 pmol (4 MBq) of the ^68Ga-labeled compound. PET imaging consisted of a dynamic scan from 0 to 60 min p.i. (30 frames), followed by non-triggered localizer and a 3-step whole body T1-weighed 3D MR-scan (PET/MR 3T, Bruker BioSpin, Germany). Additionally, a 2 h p.i. static image (10 min scan) was recorded, followed by the same MR scan protocol. Data was obtained via ParaVision 3.0 and reconstructed using a Maximum-Likelihood Expectation-Maximization (MLEM) algorithm at 0.5 mm for 18 iterations. Reconstructed data was analyzed with PMOD 3.7.

in vitro [2] = assay type: in vitro ADME; conditions: human, plasma, plasma protein binding
Experimental: To determine binding to plasma proteins, BCY18469 was labeled with ^68Ga (apparent molar activity 1 GBq/µmol). Thereafter, 10 µL of the labeling mixture were added to 100 µL of mouse or human plasma (mouse: BioIVT, United Kingdom, human: Sigma Aldrich, Germany). The mixture was left for 15 min at room temperature. Afterwards, the plasma was loaded into an ultrafiltration device (Amicon Ultra 0.5ml - 30 kDa, Merck, Germany) and centrifuged at 14,000 rpm for 30 min at r.t. The filtrate and the membrane were measured in a gamma counter (Wizard2, Perkin Elmer, Germany). The amount of plasma-bound compound was calculated based on the counts in the […] relative to the total counts (filtrate + membrane).

in vitro [3] = assay type: in vitro ADME; conditions: plasma
Experimental: Determination of stability in plasma was performed with the ^177Lu-labeled peptide. 10 µL of the labeled compound were added into human or mouse plasma (mouse: BioIVT, United Kingdom, human: Sigma Aldrich, Germany) and incubated at 37 °C. Aliquots were taken at different time points during incubation (1, 6, 24, 48 and 72 h) to which acetonitrile (30 μL) was added in order to precipitate plasma proteins. After centrifugation at 13,000 rpm for 5 min at r.t. the supernatant was taken and analyzed via HPLC.

HT1080 cells = experiment: Cell surface binding and internalization assay; assay type: cell-based, human; conditions: listed as 68Ga-BCY18469
Experimental: To assess internalization and specificity, HT1080 cells (10^5 cells/well) were seeded in a 24-well plate coated with poly-L-lysine one day before the experiment. […] To determine specific uptake, 'cold' (non-radiolabeled) BCY18469 was added to half of the wells at an excess concentration of 10 µM/well or, alternatively, the cells were kept at 4 °C during the experiment. Following the incubation, the cells were thoroughly rinsed with cold PBS (3 x 1 mL). Subsequently, surface bound radioactivity was removed by washing with 50 mM glycine (pH 2.8, 2 x 500 µL). Finally, the internalized fraction was determined by lysing the cells with 0.5 M NaOH (500 µL). All fractions were collected and measured using a gamma counter (Perkin Elmer Wizard2, Germany). All counts were standardized to the initial activity, and specific surface binding as well as specific internalization were calculated by subtracting the non-specific binding values obtained from the wells treated with an excess of 'cold' compound. Results were calculated and expressed as %AA/10^5 cells (% applied activity/10^5 cells).

in vivo [4] = conditions: female, BALC/c nu/nu, mouse, iv, 150 pmol, total radioactivity
Experimental: as §2

[5] = total radioactivity, Liver uptake
[6] = 4°C, block with 10 µM non-labeled compound

CC(C)C[C@@H]1NC(=O)[C@@H]2CSCCC(=O)N3CN(CN(C3)C(=O)CCSC[C@H](NC(=O)[C@H](CC(=O)O)NC(=O)[C@H](CCCCNC(=N)N)NC(=O)[C@H](C)NC(=O)CN(C)C(=O)CN(C)C(=O)CN(C)C(=O)CN(C)C(=O)CN(C)C(=O)CN(C)C(=O)CN(C)C(=O)CN(C)C(=O)CN(C)C(=O)CN(C)C(=O)CCNC(=O)CN3CCN(CC(=O)O)CCN(CC(=O)O)CCN(CC(=O)O)CC3)C(=O)N3C[C@H](O)C[C@H]3C(=O)N[C@@H](CC3CCC3)C(=O)N[C@@H](C(C)C)C(=O)N[C@@H](CC(N)=O)C(=O)N3CCC[C@H]3C(=O)N[C@@H](CC(C)C)C(=O)N2)C(=O)CCSC[C@@H](C(N)=O)NC(=O)[C@H](CCCCNC(=N)N)NC(=O)[C@H](Cc2c[nH]c3ccccc23)NC(=O)[C@@H](CC(=O)O)NC(=O)[C@@H]2CCCN2C(=O)[C@H](Cc2c[nH]cn2)NC1=O [[111In]In-BCY18469, metal not drawn] ({DOTA-βAla}-[Sar][Sar][Sar][Sar][Sar][Sar][Sar][Sar][Sar][Sar]A[hArg]DC[Hyp][Cba]VNPLCLHP[dD]W[hArg]C-NH2; linker 14-21-28 via TATA) gave a Kidneys uptake (PC-3 tumor xenograft; 1 h) of 31.9 ± 3.4 %ID/g, a Tumor uptake (PC-3 tumor xenograft; 1 h) of 5.72 ± 1.47 %ID/g and a Tumor uptake (PC-3 tumor xenograft; 24 h) of 2.32 ± 0.50 %ID/g. The tissue uptake at 1 h (in vivo [1]; Bladder uptake) was 207 %ID/g, the tissue uptake at 24 h (in vivo [1]; Bladder uptake) was 4.2 %ID/g and the tissue uptake at 1 h (in vivo [1]; Heart uptake) was 0.03 %ID/g. It also gave a tissue uptake at 24 h (in vivo [1]; Heart uptake) of 0.03 %ID/g, a tissue uptake at 1 h (in vivo [1]; Kidneys uptake) of 32 %ID/g and a tissue uptake at 24 h (in vivo [1]; Kidneys uptake) of 17 %ID/g. The tissue uptake at 24 h (in vivo [1]; Lungs uptake) was 0.01 %ID/g, the tissue uptake at 1 h (in vivo [1]; Muscle uptake) was 0.27 %ID/g and the tissue uptake at 24 h (in vivo [1]; Muscle uptake) was 0.02 %ID/g. For the same molecule, the tissue uptake at 1 h (in vivo [1]; Spleen uptake) was 0.27 %ID/g, the tissue uptake at 24 h (in vivo [1]; Spleen uptake) was 0.4 %ID/g and the tissue uptake at 1 h (in vivo [1]; Tail uptake) was 0.28 %ID/g. It also gave a tissue uptake at 24 h (in vivo [1]; Tail uptake) of 0.07 %ID/g, a tissue uptake at 24 h (in vivo [1]; Tumor uptake) of 2.3 %ID/g and a tissue uptake at 1 h (in vivo [1]; [5]) of 0.13 %ID/g. The tissue uptake at 24 h (in vivo [1]; [5]) was 0.05 %ID/g, the tissue uptake at 1 h (in vivo [1]; total radioactivity, Lungs uptake) was 0.12 %ID/g and the tissue uptake (in vivo [1]; total radioactivity, Non-target organs uptake) was ≤ 1 %ID/g. The tissue uptake at 1 h (in vivo [1]; total radioactivity, Tumor uptake) was 5.7 ± 1.5 %ID/g.
For CC(C)C[C@@H]1NC(=O)[C@@H]2CSCCC(=O)N3CN(CN(C3)C(=O)CCSC[C@H](NC(=O)[C@H](CC(=O)O)NC(=O)[C@H](CCCCNC(=N)N)NC(=O)[C@H](C)NC(=O)CN(C)C(=O)CN(C)C(=O)CN(C)C(=O)CN(C)C(=O)CN(C)C(=O)CN(C)C(=O)CN(C)C(=O)CN(C)C(=O)CN(C)C(=O)CN(C)C(=O)CCNC(=O)CN3CCN(CC(=O)O)CCN(CC(=O)O)CCN(CC(=O)O)CC3)C(=O)N3C[C@H](O)C[C@H]3C(=O)N[C@@H](CC3CCC3)C(=O)N[C@@H](C(C)C)C(=O)N[C@@H](CC(N)=O)C(=O)N3CCC[C@H]3C(=O)N[C@@H](CC(C)C)C(=O)N2)C(=O)CCSC[C@@H](C(N)=O)NC(=O)[C@H](CCCCNC(=N)N)NC(=O)[C@H](Cc2c[nH]c3ccccc23)NC(=O)[C@@H](CC(=O)O)NC(=O)[C@@H]2CCCN2C(=O)[C@H](Cc2c[nH]cn2)NC1=O [[68Ga]Ga-BCY18469, metal not drawn] ({DOTA-βAla}-[Sar][Sar][Sar][Sar][Sar][Sar][Sar][Sar][Sar][Sar]A[hArg]DC[Hyp][Cba]VNPLCLHP[dD]W[hArg]C-NH2; linker 14-21-28 via TATA), the “uptake in the tumor” value (MCF-7 tumor xenograft) was “no uptake”, the fraction unbound at 15 min (in vitro [2]) was ~0.5 and the remaining at 72 h (in vitro [3]; human) was 94%. The remaining at 72 h (in vitro [3]; mouse) was 40%, the “Cell Surface B 4°C” value (HT1080 cells; [6]) was 0.03 ± 0.01 %AA/10^5 cells and the “Internalization B 4°C” value (HT1080 cells; [6]) was 0.01 ± 0.00 %AA/10^5 cells. For the same molecule, the “Cell Surface 4°C” value (HT1080 cells; 4°C) was 0.47 ± 0.01 %AA/10^5 cells, the “Internalization 4°C” value (HT1080 cells; 4°C) was 0.05 ± 0.01 %AA/10^5 cells and the “Cell Surface” value (HT1080 cells; 37°C, 45 min, 30 nM) was 0.53 ± 0.03 %AA/10^5 cells. The Internalization (HT1080 cells; 37°C, 45 min, 30 nM) was 0.18 ± 0.05 %AA/10^5 cells, the “Internalization B” value (HT1080 cells; 37°C, block with 10 µM non-labeled compound) was 0.06 ± 0.00 %AA/10^5 cells and the SUV (in vivo [4]; Bladder uptake) was 0.41 SUV. For the same molecule, the SUV (in vivo [4]; Kidneys uptake) was 3.15 SUV, the SUV (in vivo [4]; Liver uptake) was 1.13 SUV and the SUV at 1 h (in vivo [4]; Tumor SUVbw) was 1.7 SUV. It also gave an SUV at 2 h (in vivo [4]; Tumor SUVbw) of 1.2 SUV and an SUV (in vivo [4]; Tumor uptake) of 0.67 SUV.
